Data reported in PMC13218722 (2026).

Target: LFA-1 (Homo sapiens, UniProt P20701)
Assay: BLI

Chain of LFA-1 (P20701 26-1170, chain 1 of 2): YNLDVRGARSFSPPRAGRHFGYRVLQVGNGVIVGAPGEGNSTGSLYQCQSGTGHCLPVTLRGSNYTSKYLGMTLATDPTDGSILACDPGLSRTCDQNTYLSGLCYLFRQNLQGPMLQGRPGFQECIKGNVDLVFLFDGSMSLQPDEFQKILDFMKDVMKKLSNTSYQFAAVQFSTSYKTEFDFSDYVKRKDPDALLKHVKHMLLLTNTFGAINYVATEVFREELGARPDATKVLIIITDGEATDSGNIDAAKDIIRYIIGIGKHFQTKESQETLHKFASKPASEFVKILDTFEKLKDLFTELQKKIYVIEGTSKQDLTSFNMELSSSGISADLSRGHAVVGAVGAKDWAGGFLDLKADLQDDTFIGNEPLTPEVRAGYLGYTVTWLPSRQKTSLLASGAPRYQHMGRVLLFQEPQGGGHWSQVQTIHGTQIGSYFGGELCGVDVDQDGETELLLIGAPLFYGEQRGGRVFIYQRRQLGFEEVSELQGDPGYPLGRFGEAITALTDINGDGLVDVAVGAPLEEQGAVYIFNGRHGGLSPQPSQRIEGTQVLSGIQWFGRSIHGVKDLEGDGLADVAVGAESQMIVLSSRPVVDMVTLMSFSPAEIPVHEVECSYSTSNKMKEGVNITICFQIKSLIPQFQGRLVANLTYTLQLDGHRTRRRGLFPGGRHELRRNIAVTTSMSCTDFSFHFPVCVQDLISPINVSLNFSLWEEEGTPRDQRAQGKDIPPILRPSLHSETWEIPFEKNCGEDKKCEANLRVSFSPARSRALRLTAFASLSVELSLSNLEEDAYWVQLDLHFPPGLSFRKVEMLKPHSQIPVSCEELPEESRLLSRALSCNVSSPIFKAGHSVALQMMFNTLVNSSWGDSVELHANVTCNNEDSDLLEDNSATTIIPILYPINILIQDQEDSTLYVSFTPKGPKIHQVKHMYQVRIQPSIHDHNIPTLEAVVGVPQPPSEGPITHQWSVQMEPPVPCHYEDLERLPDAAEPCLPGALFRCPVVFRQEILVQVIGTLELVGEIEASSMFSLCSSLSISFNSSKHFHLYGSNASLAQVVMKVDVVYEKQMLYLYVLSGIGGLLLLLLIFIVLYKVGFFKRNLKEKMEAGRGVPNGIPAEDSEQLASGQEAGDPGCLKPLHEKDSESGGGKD
Chain of LFA-1 (chain, as listed by the source, chain 2 of 2): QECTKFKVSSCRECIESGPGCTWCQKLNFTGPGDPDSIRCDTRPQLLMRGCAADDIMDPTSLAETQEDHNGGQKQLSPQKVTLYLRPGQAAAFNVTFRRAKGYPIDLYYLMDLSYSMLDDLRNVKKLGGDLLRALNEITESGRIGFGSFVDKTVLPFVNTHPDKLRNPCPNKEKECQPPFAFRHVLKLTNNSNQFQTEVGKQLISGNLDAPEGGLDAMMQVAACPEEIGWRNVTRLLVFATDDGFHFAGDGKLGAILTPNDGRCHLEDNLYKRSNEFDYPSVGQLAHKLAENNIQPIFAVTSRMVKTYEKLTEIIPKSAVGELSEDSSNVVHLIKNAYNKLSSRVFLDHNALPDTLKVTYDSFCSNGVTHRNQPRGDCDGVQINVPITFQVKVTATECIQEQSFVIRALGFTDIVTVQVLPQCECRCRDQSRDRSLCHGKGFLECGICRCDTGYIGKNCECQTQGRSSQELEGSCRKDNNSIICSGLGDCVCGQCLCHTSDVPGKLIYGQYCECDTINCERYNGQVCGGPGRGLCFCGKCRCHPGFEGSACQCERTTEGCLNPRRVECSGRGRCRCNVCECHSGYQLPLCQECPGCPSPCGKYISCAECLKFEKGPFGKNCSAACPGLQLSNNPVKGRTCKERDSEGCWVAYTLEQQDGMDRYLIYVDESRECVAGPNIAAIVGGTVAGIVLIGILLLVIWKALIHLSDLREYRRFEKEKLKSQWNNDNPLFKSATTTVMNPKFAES

B1: GBP-130 ectodomain (protein)
chain: MRLSKVSDIKSTGVSNYKNFNSKNSSKYSLMEVSKKNEKKNSLGAFHSKKILLIFGIIYVVLLNAYICGDKYEKAVDYGFRESRILAEGEDTCARKEKTTLRKSKQKTSTRTVATQTKKDEENKSVVTEEQKVESDSEKQKRTKKVVKKQINIGDTENQKEGKNVKKVIKKEKKKEESGKPEENKHANEASKKQEPKASKVSQKPSTSTRSNNEVKIRAASNQETLTSADPEGQIMREYAADPEYRKHLEIFYKILTNTDPNDEVERRNADNKEDLTSADPEGQIMREYASDPEYRKHLEIFYKILTNTDPNDDVERRNADNKEDLTSADPEGQIMREYAADPEYRKHLEVFHKILTNTDPNDEVERRNADNKEDLTSADPEGQIMREYAADPEYRKHLEVFHKILTNTDPNDEVERRNADNKELTSSDPEGQIMREYAADPEYRKHLEVFHKILTNTDPNDEVERRNADNKEDLTSADPEGQIMREYAADPEYRKHLEVFHKILTNTDPNDEVERRNADNKEDLTSADPEGQIMREYAADPEYRKHLEIFHKILTNTDPNDEVERRNADNKEDLTSADPEGQIMREYAADPEYRKHLEIFYKILTNTDPNDEVERRNADNKEELTSSDPEGQIMREYAADPEYRKHLEIFHKILTNTDPNDEVERRNADNKEDLTSADPEGQIMREYAADPEYRKHLEIFYKILTNTDPNDEVERRNADNKEDLTSADPEGQIMREYASDPEYRKHLEIFYKILTNTDPNDDVERRNADNKEDLTSADPEGQIMREYAADPEYRKHLEVFHKILTNTDPNDEVERQNADNNEA
B1 gave a Kd of 15 nM.
